Here are results for nine sequences from patent US20130177960.

Assay in all cases: cell_activity
The test system of one data set is SBS34077 ZFN (synthetic). To be noted: pair with 33115, D17 cells.
A further data set concerns SBS33115 ZFN (synthetic). Conditions: pair with 34077, D17 cells.
Another data set has as its system SBS36806 ZFN (synthetic). To be noted: pair with 35396, RF/6A.
The next data set relates to SBS36813 ZFN (synthetic). Conditions: pair with 35396, RF/6A.
Another data set concerns SBS36820 ZFN (synthetic). To be noted: pair with 35396, RF/6A.
A further data set relates to SBS36819 ZFN (synthetic). Conditions: pair with 35396, RF/6A.
The next data set relates to SBS36808 ZFN (synthetic). Conditions: pair with 35396, RF/6A.
Another data set deals with SBS35370 ZFN (synthetic). To be noted: pair with 35396.
A further data set relates to SBS35393 ZFN (synthetic). Conditions: pair with 35361.
For another data set, the system named is SBS30872 ZFN (synthetic). To be noted: pair with 30873, AAV8 in mouse liver, Cel-I; up to 17% over both pairs.
Another data set concerns SBS30873 ZFN (synthetic). Conditions: pair with 30872, AAV8 in mouse liver, Cel-I; up to 17% over both pairs.
The test system of the next data set is SBS30724 ZFN (synthetic). To be noted: pair with 30725, AAV in mouse liver, Cel-I.
A further data set deals with SBS30725 ZFN (synthetic). Conditions: pair with 30724, AAV in mouse liver, Cel-I.

In the data set on SBS34077 ZFN (synthetic), “AAGTCATGTGGAGAGAAACACAAAGAGT (double strand) [34077 site]” displayed an activity of 30 % indels.
In the data set with SBS33115 ZFN (synthetic), “AGTATTCGTTTGCTCCAAAATATTTGCC (double strand) [33115 site]” yielded an activity of 30 % indels.
On to “TTAGGGACAGTTATGAATTCAATCTTCA (double strand) [rhesus partner site]”, for which the activity with SBS36806 ZFN (synthetic) stood at 20.5 % indels; in the data set with SBS36813 ZFN (synthetic), 21 % indels; with SBS36820 ZFN (synthetic) it was 23 % indels; in the data set with SBS36819 ZFN (synthetic) it was 30 % indels; in the data set on SBS36808 ZFN (synthetic), 26 % indels.
As to “TTTGGGATAGTTATGAATTCAATCTTCA (double strand) [human locus 2 partner site]”, the activity (% mutated targets) in the data set on SBS35370 ZFN (synthetic) is 22.
Sequence “CCTATCCATTGCACTATGCTTTATTTAA (double strand) [human locus 2 left site (conserved in rhesus)]” registered an activity (% mutated targets) in the data set with SBS35393 ZFN (synthetic) of 18.
“CTTGGCTGTGTAGGAGGGGAGTAGCAGT (double strand) [30872 site]” gave an activity in the data set with SBS30872 ZFN (synthetic) of under 17 % indels.
The sequence “TTCCTAAGTTGGCAGTGGCATGCTTAAT (double strand) [30873 site]” registered an activity in the data set on SBS30873 ZFN (synthetic) of under 17 % indels.
Sequence “CTGAAGGTGGCAATGGTTCCTCTCTGCT (double strand) [30724 site]” had an activity with SBS30724 ZFN (synthetic) of under 21 % indels.
Regarding “TTTCCTGTAACGATCGGGAACTGGCATC (double strand) [30725 site]”, in the data set with SBS30725 ZFN (synthetic), the activity is under 21 % indels.
